Experimental data as given in patent publication US20110165145A1 (published 2011).
One block for each binder: values may come before it.

Legend:
[1] = molecular target: T1, insulin-like growth factor II (IGF-II), amino acids 1-67 (human, UniProt P01344 25-91); experiment: cell-based or functional assay
[2] = molecular target: T2, IGF-IIE (amino acids 1-104 of pro-IGF-II) (human, UniProt P01344 25-128); experiment: cell-based or functional assay
[3] = molecular target: T1, insulin-like growth factor II (IGF-II), …; experiment: competition SPR (BIACORE T100), affinity in solution, free ligand read on huIR-A ECD; measurement 1
Description: (§1) Competition SPR (BIACORE®) was performed under conditions of partially mass-transport limited conditions according to previously described methodology (Nieba et al., 1996). Approximately 16,700 relative response units (RU) of huIR-A (-exon11) ectodomain was coupled by standard amine chemistry to a BIACORE® CM5 chip sensor. Uncoated flow-cell surface was used as a reference. […] Regeneration of the surface was achieved by injection of 30 ul NaCltrate/NaCl pH 4.5. […] These Req estimates were subsequently plotted against total concentrations of Fab used and the resulting inhibition curve was utilised to calculate dissociation constant (KD).

[4] = molecular target: T2, IGF-IIE (amino acids 1-104 of …); experiment: as above
Description: as §1

[5] = molecular target: T1, insulin-like growth factor II (IGF-II), …; experiment: SPR (value equals that of Table 6, there under IgGs); Fab, not IgG
[6] = molecular target: T1, insulin-like growth factor II (IGF-II), …; experiment: competition SPR (BIACORE T100), affinity in solution, free ligand read on huIR-A ECD; measurement 2
Description: as §1

[7] = molecular target: T2, IGF-IIE (amino acids 1-104 of …); experiment: as above
Description: as §1

[8] = molecular target: T1, insulin-like growth factor II (IGF-II), …; experiment: SPR (Flexchip), Fab, 2nd of duplicate
[9] = molecular target: T2, IGF-IIE (amino acids 1-104 of …); experiment: SPR (Flexchip), Fab, 2nd of duplicate
[10] = molecular target: T3, insulin-like growth factor I (IGF-I) (UniProt P05019 49-118); experiment: cell-based or functional assay
T3 sequence (P05019 49-118 limits assumed): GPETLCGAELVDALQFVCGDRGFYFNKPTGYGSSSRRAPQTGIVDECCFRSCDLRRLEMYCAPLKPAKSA

[11] = molecular target: T1, insulin-like growth factor II (IGF-II), …; experiment: SPR (Flexchip), Fab, 1st of duplicate
[12] = molecular target: T2, IGF-IIE (amino acids 1-104 of …); experiment: SPR (Flexchip), Fab, 1st of duplicate
[13] = molecular target: T1, insulin-like growth factor II (IGF-II), …; experiment: SPR, compared with DX-2647
[14] = molecular target: T3, insulin-like growth factor I (IGF-I); experiment: SPR
[15] = molecular target: T3, insulin-like growth factor I (IGF-I); experiment: SPR, captured IgG, 1:1 binding model
[16] = molecular target: T1, insulin-like growth factor II (IGF-II), …; experiment: SPR, captured IgG, 1:1 binding model
[17] = molecular target: T2, IGF-IIE (amino acids 1-104 of …); experiment: SPR, captured IgG, 1:1 binding model
[18] = molecular target: pre-formed complex of IGF-II and IGFBP-1 (human, UniProt P08833 26-259); experiment: SPR: DX-2647 captured through its Fc, pre-formed IGF-II/IGFBP-1 complex injected; concentration not on the sheet
IGFBP-1 = molecular target: T4, IGFBP-1 (UniProt P08833 26-259); experiment: SPR: DX-2647 captured through its Fc, IGFBP-1 alone injected; concentration not on the sheet
T4 sequence (looked up): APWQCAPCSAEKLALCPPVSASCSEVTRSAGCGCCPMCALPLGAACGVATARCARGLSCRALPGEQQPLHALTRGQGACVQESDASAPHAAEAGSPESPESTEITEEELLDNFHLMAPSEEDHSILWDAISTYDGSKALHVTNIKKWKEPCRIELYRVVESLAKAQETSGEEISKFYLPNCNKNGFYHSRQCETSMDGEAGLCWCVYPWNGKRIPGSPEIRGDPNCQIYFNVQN

[19] = molecular target: T1, insulin-like growth factor II (IGF-II), …; experiment: SPR, IgG captured on anti-human Fc chip, ligand as analyte

T2 sequence (P01344 25-128): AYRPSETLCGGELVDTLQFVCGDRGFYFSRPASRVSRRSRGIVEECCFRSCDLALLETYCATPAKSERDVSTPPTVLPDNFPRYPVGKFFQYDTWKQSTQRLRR
T1 sequence (P01344 25-91): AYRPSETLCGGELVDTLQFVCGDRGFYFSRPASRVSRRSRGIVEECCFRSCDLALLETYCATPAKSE

IC50, IGF-II stimulated Ba/F3 cell proliferation (MTS) [1]: 0.68 µg/mL
IC50, IGF-IIE stimulated Ba/F3 cell proliferation (MTS) [2]: 3.12 µg/mL
Kd [3]: 1030 pM
Kd [4]: 1910 pM
Kd [5]: 140 pM
Kd [6]: 503 pM
Kd [7]: 352 pM
Kd [8]: 1200 pM
Kd [9]: 290 pM
IGF-I stimulated Ba/F3 cell proliferation, sFab at 50 µg/ml [10]: ~30 % inhibition
Kd [11]: 450 pM
Kd [12]: 320 pM
fold less affinity than DX-2647 [13]: 7 fold
B1: M0064-F02 Fab (Fab, V domains shown)
VH: EVQLLESGGGLVQPGGSLRLSCAASGFTFSNYIMWWVRQAPGKGLEWVSVISSSGGMTRYADSVKGRFTISRDNSKNTLYLQMNSLRAEDTAVYYCARDNGDYVGEKGFDIWGQGTMVTVSS
VL: DIQMTQSPSSLSASVGDRVTITCRASQSISNYLNWYQQKPGKAPKLLIYTASTLQSGVPSRFSGSASGTDFTLTINSLQPEDFATYSCQQSYNSPWTFGQGTKVEIKR
notes: soluble Fab (sFab); also the Fab crystallised with IGF-II; also called R0032-A11; 566A-M0064-F02

Kd [14]: 28000 pM
Kd [15]: 17000 pM
koff [15]: 0.1 s⁻¹
kon [15]: 5.8e+06 M⁻¹ s⁻¹
Kd [16]: 22.6 pM
koff [16]: 2.38e-05 s⁻¹
kon [16]: 1.06e+06 M⁻¹ s⁻¹
Kd [17]: < 23 pM
koff [17]: < 2e-05 s⁻¹
kon [17]: 2.06e+06 M⁻¹ s⁻¹
binding result [18]: no binding
binding result (IGFBP-1): no binding
Kd [19]: 23 pM
B2: DX-2647 (antibody, human IgG1, kappa, V domains shown)
VH: EVQLLESGGGLVQPGGSLRLSCAASGFTFSNYIMWWVRQAPGKGLEWVSVISSSGGGTLYADSVKGRFTISRDNSKNTLYLQMNSLRAEDTAVYYCARDNGDYVGEKGFDIWGQGTMVTVSS
VL: DIQMTQSPSSLSASVGDRVTITCRASQSISNYLNWYQQKPGKAPKLLIYTASTLQSGVPSRFSGSGSGTDFTLTISSLQPEDFATYYCQQSYNSPWTFGQGTKVEIKR
notes: human IgG1, germlined from 566A-M0064-F02, expressed in CHOK1SV cells
